Experimental data published in US20220106400A1 (Bristol-Myers Squibb, published 2022).
Values joined by “and” are separate entries in the source; they are usually repeats but may differ in a detail not shown here. Equal entries are not always repeated. Where two headings read alike, the source gives them in different places.

T1: human CD73 on human tumor cell lines (human, UniProt P21589 27-549)
T1 sequence (looked up): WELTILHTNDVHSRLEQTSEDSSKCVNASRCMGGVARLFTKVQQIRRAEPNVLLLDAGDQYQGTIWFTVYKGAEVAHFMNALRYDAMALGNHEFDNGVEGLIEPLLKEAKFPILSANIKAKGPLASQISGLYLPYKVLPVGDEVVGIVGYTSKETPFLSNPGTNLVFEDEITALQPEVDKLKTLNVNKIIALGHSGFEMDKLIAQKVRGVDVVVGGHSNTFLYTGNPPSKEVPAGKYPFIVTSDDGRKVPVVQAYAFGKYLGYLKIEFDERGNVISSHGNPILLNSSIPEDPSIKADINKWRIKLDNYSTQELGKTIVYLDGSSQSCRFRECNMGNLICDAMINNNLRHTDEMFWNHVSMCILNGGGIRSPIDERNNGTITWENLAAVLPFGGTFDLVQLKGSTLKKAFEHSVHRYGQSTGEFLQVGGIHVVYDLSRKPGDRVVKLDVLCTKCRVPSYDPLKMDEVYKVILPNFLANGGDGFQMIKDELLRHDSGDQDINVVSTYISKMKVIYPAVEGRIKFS

T2: N-terminal domain of hCD73 (residues 26-336 of human CD73), his-tagged (human, UniProt P21589 26-336)
T2 construct: also called N-hCD73; N-hCD73-his
T2 sequence (looked up): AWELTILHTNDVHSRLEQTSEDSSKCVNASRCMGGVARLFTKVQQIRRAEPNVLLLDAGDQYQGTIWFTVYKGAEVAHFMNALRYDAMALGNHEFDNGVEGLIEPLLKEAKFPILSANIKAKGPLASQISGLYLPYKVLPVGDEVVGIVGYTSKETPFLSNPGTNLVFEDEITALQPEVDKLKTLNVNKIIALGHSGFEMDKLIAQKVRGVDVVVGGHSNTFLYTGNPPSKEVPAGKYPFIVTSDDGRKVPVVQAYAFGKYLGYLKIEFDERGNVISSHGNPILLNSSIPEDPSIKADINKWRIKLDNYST

T3: full length extracellular domain of human-CD73 with C-terminal polyhistidine tag (residues 26-546) (human, UniProt P21589 26-546)
T3 construct: range 26-546; also called hCD73-his; CD73-his
T3 sequence (looked up): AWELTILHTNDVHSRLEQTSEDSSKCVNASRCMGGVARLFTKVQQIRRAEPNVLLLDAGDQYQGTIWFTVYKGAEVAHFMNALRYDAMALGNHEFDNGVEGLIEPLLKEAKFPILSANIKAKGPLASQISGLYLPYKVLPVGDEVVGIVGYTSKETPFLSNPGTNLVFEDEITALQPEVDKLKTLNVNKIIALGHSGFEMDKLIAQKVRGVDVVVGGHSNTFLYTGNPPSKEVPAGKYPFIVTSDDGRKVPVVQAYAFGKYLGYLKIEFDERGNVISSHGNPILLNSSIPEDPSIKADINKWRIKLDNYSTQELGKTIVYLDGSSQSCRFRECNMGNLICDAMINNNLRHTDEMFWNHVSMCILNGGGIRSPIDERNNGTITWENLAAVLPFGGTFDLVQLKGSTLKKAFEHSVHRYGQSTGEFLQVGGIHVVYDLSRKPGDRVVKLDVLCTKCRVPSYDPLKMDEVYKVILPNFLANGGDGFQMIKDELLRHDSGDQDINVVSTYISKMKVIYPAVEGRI


Key:
[1] = molecular target: T1, human CD73 on human tumor cell lines; assay: cell-based or functional assay
[2] = molecular target: T2, N-terminal domain of hCD73 (residues …); assay: SPR Biacore T100, mAb captured on protein A, N-hCD73-his analyte, 25 C
Experimental: (§1) The affinity of the antibodies for human CD73 was measured to determine whether the change of the constant region affects them. The affinities were determined by Surface Plasmon Resonance (SPR) as follows. […] For these experiments, protein A (Pierce) was immobilized to a density of 3000-4000 RU on flow cells 1-4 of a CM5 sensor chip (GE Healthcare) using standard ethyl(dimethylaminopropyl) carbodiimide (EDC)/N-hydroxysuccinimide (NHS) chemistry, with ethanolamine blocking, in a running buffer of 0.01 M HEPES pH 7.4, 0.15 M NaCl, 3 mM EDTA, 0.005% v/v tween 20. Kinetic experiments were performed by first capturing antibodies (5-10 ug/ml) on the protein A surfaces using a 30 s contact time at 10 ul/min, with binding of 600, 200, 66.7, 22.2, 7.4, and 2.5 nM N-hCD73-his, using a 180 s association time and 360 s dissociation time at a flow rate of 30 ul/min. The running buffer for the kinetic experiments was 10 mM sodium phosphate, 130 mM sodium chloride, 0.05% tween 20, pH 7.1. The surfaces were regenerated after each cycle using two 30 s pulses of 10 mM glycine pH 1.5 at a flow rate of 30 μl/min. Sensogram data was double-referenced and then fitted to a 1:1 Langmuir model using Biacore T100 evaluation software v2.0.4, to determine the association rate constant (ka), the dissociation rate constant (kd), and the equilibrium dissociation constant (KD).

[3] = molecular target: T2, N-terminal domain of hCD73 (residues …); assay: SPR Biacore T100, mAb captured on protein A, N-hCD73-his analyte, 25 C; separate experiment
Experimental: as §1

[4] = molecular target: T1, human CD73 on human tumor cell lines; assay: cell-based or functional assay; remark: listed apart in the source
[5] = molecular target: T1, human CD73 on human tumor cell lines; assay: cell-based or functional assay; remark: listed apart in the source
[6] = molecular target: T1, human CD73 on human tumor cell lines; assay: cell-based or functional assay; remark: listed apart in the source
[7] = molecular target: T3, full length extracellular domain of …; assay: SEC, 1:1 molar mix 5.5 uM each
Experimental: The oligomeric state of CD73/antibody complexes were examined by size-exclusion chromatography coupled to an in-line multi-angle light scattering detector (SEC-MALS). Isocratic separations were performed on a Shodex PROTEIN KW-803 column connected to an Prominence Shimadzu UFLC in buffer containing 200 mM K₂HPO₄, 150 mM NaCl, pH 6.8, containing 0.02% Na azide (0.1 μm filtered) running at 0.5 mL/min. Samples were injected onto the column using a SIL-20AC Prominence Shimadzu autosampler, and data were obtained from three online detectors connected in series: a Prominence SPD-20AD diode array UV/vis spectrophotometer followed by a Wyatt miniDAWN™ TREOS Multi-Angle Light Scattering Detector then a Wyatt Optilab T-rEX Refractive Index Detector. Data were collected and analyzed using Astra (Wyatt) and Labsolutions (Shimadzu) software.
CD73.4 antibodies having the heavy chain constant regions set forth in Table 14 were also tested for formation of high molecular weight complexes by SEC-MALS and DLS experiments, as described in Example 3.

Row | Binder | % internalization, Calu6 [1] | % internalization, H2030 [1] | % internalization, H2228 [1] | % internalization, HCC15 [1] | T1/2 internalization, Calu6 [1] | T1/2 internalization, H2030 [1] | T1/2 internalization, H2228 [1] | T1/2 internalization, HCC15 [1] | Kd [2] | koff [2] | kon [2] | Kd [3] | koff [3] | kon [3] | EC50 of CD73 internalization, Calu6, 2 h [4] | Ymax of CD73 internalization, Calu6, 2 h [4] | T1/2 internalization, Calu6 [5] | T1/2 internalization, NCI-H292 [5] | UV % Peak1 <12.9 min [7] | UV % Peak4 16.7-19.3 min (free mAb) [7] | further results
1 | CD73.10-IgG2-C219S (antibody, anti-CD73; also called CD73.10-IgG2CS; CD73.10-Vh-hHC-IgG2-C219S) heavy: QVQLVESGGGVVQPGRSLRLSCAASGFTFSNYGMHWVRQAPGKGLEWVAVIWYDESNKYYPDSVKGRFTISRDNSKNTLYLQMNSLRAEDTAVYYCARGGSSWYPDSFDIWGQGTMVTVSSASTKGPSVFPLAPCSRSTSESTAALGCLVKDYFPEPVTVSWNSGALTSGVHTFPAVLQSSGLYSLSSVVTVPSSNFGTQTYTCNVDHKPSNTKVDKTVERKSCVECPPCPAPPVAGPSVFLFPPKPKDTLMISRTPEVTCVVVDVSHEDPEVQFNWYVDGVEVHNAKTKPREEQFNSTFRVVSVLTVVHQDWLNGKEYKCKVSNKGLPAPIEKTISKTKGQPREPQVYTLPPSREEMTKNQVSLTCLVKGFYPSDIAVEWESNGQPENNYKTTPPMLDSDGSFFLYSKLTVDKSRWQQGNVFSCSVMHEALHNHYTQKSLSLSPG light: not shown | 91% | 85% | 93% | 91% | 3 min | 3.3 min | 9.7 min | 2.6 min | 6.2 nM | 0.0014 s⁻¹ | 220000 M⁻¹ s⁻¹ | 8.3 nM | 0.0018 s⁻¹ | 220000 M⁻¹ s⁻¹ | 0.67 nM | 99 % of 100 nM 11F11 | – | – | – | – | –
2 | CD73.4-IgG2-C219S (antibody, anti-CD73; also called CD73.4-IgG2CS; CD73.4-IgG2.3) heavy: QVQLVESGGGVVQPGRSLRLSCAASGFTFSNYGMHWVRQAPGKGLEWVAVILYDGSNKYYPDSVKGRFTISRDNSKNTLYLQMNSLRAEDTAVYYCARGGSSWYPDSFDIWGQGTMVTVSSASTKGPSVFPLAPCSRSTSESTAALGCLVKDYFPEPVTVSWNSGALTSGVHTFPAVLQSSGLYSLSSVVTVPSSNFGTQTYTCNVDHKPSNTKVDKTVERKSCVECPPCPAPPVAGPSVFLFPPKPKDTLMISRTPEVTCVVVDVSHEDPEVQFNWYVDGVEVHNAKTKPREEQFNSTFRVVSVLTVVHQDWLNGKEYKCKVSNKGLPAPIEKTISKTKGQPREPQVYTLPPSREEMTKNQVSLTCLVKGFYPSDIAVEWESNGQPENNYKTTPPMLDSDGSFFLYSKLTVDKSRWQQGNVFSCSVMHEALHNHYTQKSLSLSPG light: not shown | 88% | 89% | 94% | 94% | 6.5 min | 3.7 min | 13.8 min | 3.1 min | 0.55 nM | – | – | – | – | – | – | – | 22.4 min and 21.8 min | 17.2 min and 17.1 min | 37% | 28.6% | T1/2 internalization, Calu6 [6]: 36 min; T1/2 internalization, NCI-H292 [6]: 16.6 min; Ymax internalization, Calu6 [6]: 75.6%; Ymax internalization, NCI-H292 [6]: 78.4%; UV % Peak3 15.1-16.7 min [7]: 7.7%; UV % Peak5 >19.3 min [7]: 2.9%
3 | 11F11 (antibody, human IgG2, kappa, V domains shown, hybridoma derived anti-CD73 antibody, IgG2 constant region; also called 11F11(IgG2)) VH: QVQLVESGGGVVQPGRSLRLSCATSGFTFSNYGMHWVRQAPGKGLEWVAVILYDGSNKYYPDSVKGRFTISRDNSKNTLYLQMNSLRAEDTAVYYCARGGSSWYPDSFDIWGQGTMVTVSS VL: DIQMTQSPSSLSASVGDRVTITCRASQGISSWLAWYQQKPEKAPKSLIYAASSLQSGVPSRFSGSGSGTDFTLTISSLQPEDFATYYCQQYNSYPLTFGGGTKVEIKR | – | – | – | – | – | – | – | – | 1.6 nM | 0.00042 s⁻¹ | 260000 M⁻¹ s⁻¹ | 0.56 nM | 0.00016 s⁻¹ | 290000 M⁻¹ s⁻¹ | 0.58 nM | 98 % of 100 nM 11F11 | – | – | – | – | –
4 | CD73.4-IgG2.3-plusTHT (antibody, also called mAb-CD73.4-IgG2.3-plusTHT; CD73.4-Vh-hHC-IgG2.3-plusTHT) heavy: QVQLVESGGGVVQPGRSLRLSCAASGFTFSNYGMHWVRQAPGKGLEWVAVILYDGSNKYYPDSVKGRFTISRDNSKNTLYLQMNSLRAEDTAVYYCARGGSSWYPDSFDIWGQGTMVTVSSASTKGPSVFPLAPCSRSTSESTAALGCLVKDYFPEPVTVSWNSGALTSGVHTFPAVLQSSGLYSLSSVVTVPSSNFGTQTYTCNVDHKPSNTKVDKTVERKSCVETHTCPPCPAPPVAGPSVFLFPPKPKDTLMISRTPEVTCVVVDVSHEDPEVQFNWYVDGVEVHNAKTKPREEQFNSTFRVVSVLTVVHQDWLNGKEYKCKVSNKGLPAPIEKTISKTKGQPREPQVYTLPPSREEMTKNQVSLTCLVKGFYPSDIAVEWESNGQPENNYKTTPPMLDSDGSFFLYSKLTVDKSRWQQGNVFSCSVMHEALHNHYTQKSLSLSPGK light: not shown | – | – | – | – | – | – | – | – | – | – | – | – | – | – | – | – | 21.3 min | 17.6 min | 30.6% | 33.7% | Ymax internalization, Calu6 [5]: 81.2%; Ymax internalization, NCI-H292 [5]: 91.4%; UV % Peak5 >19.3 min [7]: 3.2%
